Target: T1, receptor-binding domain (RBD) of the SARS-CoV-2 spike, R319-F541, with a C-terminal 6xHis-tag (SARS-CoV-2, UniProt P0DTC2)
T1 construct: also called RBD-His; not shown: His6, C-terminal, kept
Assay: ELISA
Settings: both partners purified

B1: COVA2-15 monomeric IgA2m(1)_D133C (antibody, V domains shown)
VH: QVQLLESGGGLVQPGGSLRLSCAASGFTFSSYAMSWVRQAPGKGLEWASAISGSGGSTYYADSVEGRFTISRDNSKNTLYLQMNSLRAEDTAVYYCAKDTGYCGDDCYIKLIRGGPDYWGQGTLVTVSS
VL: DIVMTQSPLSLPVTLGQPASISCRSSQSLVYSDGNTFLNWFQQRPGQSPRRLIYQVSNRDSGVPDRFSGSGSGTDFTLKISRVEAEDVGVYYCMQGTHWPRTFGQGTKLEIK
notes: no single major 160 kDa peak in SEC; also called COVA2-15 mIgA2m(1)_D133C; mIgA2m(1)_D133C; copies: 2 + 2
  binding result: binds
